From patent publication US20260201033A1 (LTZ THERAPEUTICS, published 2026)

T1: CD79b on Ramos cells and on endogenous B cells of human PBMCs (human, UniProt P40259 29-229)
T1 sequence (looked up): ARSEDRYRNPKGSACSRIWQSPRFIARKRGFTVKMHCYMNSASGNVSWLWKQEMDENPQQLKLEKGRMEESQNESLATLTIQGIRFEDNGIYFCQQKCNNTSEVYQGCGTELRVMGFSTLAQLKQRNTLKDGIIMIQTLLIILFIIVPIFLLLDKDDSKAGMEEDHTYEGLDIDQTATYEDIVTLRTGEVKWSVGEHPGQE


Experiments:
Test in all cases: cell-based or functional assay
[1] = biological target: T1, CD79b on Ramos cells and on endogenous …
[2] = biological target: T1, CD79b on Ramos cells and on endogenous …; remark: listed apart in the source
[3] = biological target: T1, CD79b on Ramos cells and on endogenous …; remark: listed apart in the source
[4] = biological target: T1, CD79b on Ramos cells and on endogenous …; remark: listed apart in the source
[5] = biological target: T1, CD79b on Ramos cells and on endogenous …; remark: listed apart in the source
[6] = biological target: T1, CD79b on Ramos cells and on endogenous …; remark: listed apart in the source

Binder | IC50 (nM), Ramos cell killing by PBMCs (test 2), Donor 431 [1] | IC50 (nM), killing of endogenous B cells by PBMCs, Donor 367 [2] | IC50 (nM), killing of endogenous B cells by PBMCs, Donor 431 [2] | IC50 (nM), Ramos cell killing by M0 macrophages, Donor 022 [3] | IC50 (nM), Ramos cell killing by M0 macrophages, Donor 431 [3] | IC50 (nM), Ramos cell killing by PBMCs (test 3), Donor 281 [4] | IC50 (nM), Ramos cell killing by PBMCs (test 3), Donor 367 [4] | IC50 (nM), Ramos cell killing by M2 macrophages, Donor 022 [5] | IC50 (nM), Ramos cell killing by M2 macrophages, Donor 431 [5] | IC50 (nM), Ramos cell killing by M1 macrophages, Donor 431 [6] | IC50 (nM), killing of endogenous B cells by PBMCs, Donor 023 [2] | IC50 (nM), Ramos cell killing by M0 macrophages, Donor 100 [3] | IC50 (nM), Ramos cell killing by M0 macrophages, Donor 233 [3] | IC50 (nM), Ramos cell killing by PBMCs (test 3), Donor 022 [4] | IC50 (nM), Ramos cell killing by M2 macrophages, Donor 100 [5] | IC50 (nM), Ramos cell killing by M2 macrophages, Donor 233 [5] | IC50 (nM), Ramos cell killing by M1 macrophages, Donor 100 [6] | other results
CD79b/5C7 (2+1 B) Fc-optimized (bispecific antibody, human IgG1, kappa) heavy 1: EQQLVETGGGLIQPGGSLRLSCAASGFTINIDYWISWVRQAPGKGLEWIGIIDPGDGTTYFAIWVSGRFTISFDNSKNTVYLQMNSLRAEDTAVYFCVREFSASAYQYDLWGPGTLVTVSSASTKGPSVFPLAPSSKSTSGGTAALGCLVKDYFPEPVTVSWNSGALTSGVHTFPAVLQSSGLYSLSSVVTVPSSSLGTQTYICNVNHKPSNTKVDKKVEPKSCDKTHTCPPCPAPELLAGPSVFLFPPKPKDTLMISRTPEVTCVVVDVSHEDPEVKFNWYVDGVEVHNAKTKPREEQYNSTYRVVSVLTVLHQDWLNGKEYKCKVSNKALPLPEEKTISKAKGQPREPQVYTLPPSRDELTKNQVSLSCAVKGFYPSDIAVEWESNGQPENNYKTTPPVLDSDGSFFLVSKLTVDKSRWQQGNVFSCSVMHEALHNHYTQKSLSLSPGK heavy 2: EQQLVETGGGLIQPGGSLRLSCAASGFTINIDYWISWVRQAPGKGLEWIGIIDPGDGTTYFAIWVSGRFTISFDNSKNTVYLQMNSLRAEDTAVYFCVREFSASAYQYDLWGPGTLVTVSSASTKGPSVFPLAPSSKSTSGGTAALGCLVKDYFPEPVTVSWNSGALTSGVHTFPAVLQSSGLYSLSSVVTVPSSSLGTQTYICNVNHKPSNTKVDKKVEPKSCDKTHTCPPCPAPELLAGPSVFLFPPKPKDTLMISRTPEVTCVVVDVSHEDPEVKFNWYVDGVEVHNAKTKPREEQYNSTYRVVSVLTVLHQDWLNGKEYKCKVSNKALPLPEEKTISKAKGQPREPQVYTLPPSRDELTKNQVSLWCLVKGFYPSDIAVEWESNGQPENNYKTTPPVLDSDGSFFLYSKLTVDKSRWQQGNVFSCSVMHEALHNHYTQKSLSLSPGKGGGGSGGGGSGGGGSDIQMTQSPSSLSASVGDRVTITCQASESVDRNNRLAWFQQKPGKPPKLLIYTTSTLASGVPSRFSGSGSGTDFTLTISSLQPEDVATYYCAGYRGAHTDGDAFGGGTKVEIKGGGGSGGGGSGGGGSGGGGSEQQLVESGGGLVKPGGSLRLSCAASGFSFSRSSYMCWVRQAPGKGLEWIGCLSVGDGHTYYASWAKGRFTISKDSAKNSVYLQMNSLRAEDTAVYFCARAPSYSGDGGHGYDLWGPGTLVTVSS light: ELVMTQSPATLSVSPGERATLSCRASEDIENYLAWYQQKPGQPPRLLIYRASTLSSGVPARFSGSGSGTEFTLTISSLQSEDFAVYYCQQGYRNSNVDNPFGGGTKVEIKRTVAAPSVFIFPPSDEQLKSGTASVVCLLNNFYPREAKVQWKVDNALQSGNSQESVTEQDSKDSTYSLSSTLTLSKADYEKHKVYACEVTHQGLSSPVTKSFNRGEC | 0.0104 nM | 0.104 nM | 0.104 nM | 0.003 nM | 0.004 nM | 0.0112 nM | 0.0186 nM | 0.002 nM | 0.001 nM | 0.005 nM |  |  |  |  |  |  |  | IC50 (nM), Ramos cell killing by PBMCs (test 2), Donor 234 [1]: 0.0639 nM; IC50 (nM), killing of endogenous B cells by PBMCs, Donor 234 [2]: 0.0207 nM
CD79b/5C7 (1+1 B) Fc-optimized (bispecific antibody, human IgG1, kappa) heavy 1: EQQLVETGGGLIQPGGSLRLSCAASGFTINIDYWISWVRQAPGKGLEWIGIIDPGDGTTYFAIWVSGRFTISFDNSKNTVYLQMNSLRAEDTAVYFCVREFSASAYQYDLWGPGTLVTVSSASTKGPSVFPLAPSSKSTSGGTAALGCLVKDYFPEPVTVSWNSGALTSGVHTFPAVLQSSGLYSLSSVVTVPSSSLGTQTYICNVNHKPSNTKVDKKVEPKSCDKTHTCPPCPAPELLAGPSVFLFPPKPKDTLMISRTPEVTCVVVDVSHEDPEVKFNWYVDGVEVHNAKTKPREEQYNSTYRVVSVLTVLHQDWLNGKEYKCKVSNKALPLPEEKTISKAKGQPREPQVYTLPPSRDELTKNQVSLSCAVKGFYPSDIAVEWESNGQPENNYKTTPPVLDSDGSFFLVSKLTVDKSRWQQGNVFSCSVMHEALHNHYTQKSLSLSPGK heavy 2: DIQMTQSPSSLSASVGDRVTITCQASESVDRNNRLAWFQQKPGKPPKLLIYTTSTLASGVPSRFSGSGSGTDFTLTISSLQPEDVATYYCAGYRGAHTDGDAFGGGTKVEIKGGGGSGGGGSGGGGSGGGGSEQQLVESGGGLVKPGGSLRLSCAASGFSFSRSSYMCWVRQAPGKGLEWIGCLSVGDGHTYYASWAKGRFTISKDSAKNSVYLQMNSLRAEDTAVYFCARAPSYSGDGGHGYDLWGPGTLVTVSSDKTHTCPPCPAPELLAGPSVFLFPPKPKDTLMISRTPEVTCVVVDVSHEDPEVKFNWYVDGVEVHNAKTKPREEQYNSTYRVVSVLTVLHQDWLNGKEYKCKVSNKALPLPEEKTISKAKGQPREPQVYTLPPSRDELTKNQVSLWCLVKGFYPSDIAVEWESNGQPENNYKTTPPVLDSDGSFFLYSKLTVDKSRWQQGNVFSCSVMHEALHNHYTQKSLSLSPGK light: ELVMTQSPATLSVSPGERATLSCRASEDIENYLAWYQQKPGQPPRLLIYRASTLSSGVPARFSGSGSGTEFTLTISSLQSEDFAVYYCQQGYRNSNVDNPFGGGTKVEIKRTVAAPSVFIFPPSDEQLKSGTASVVCLLNNFYPREAKVQWKVDNALQSGNSQESVTEQDSKDSTYSLSSTLTLSKADYEKHKVYACEVTHQGLSSPVTKSFNRGEC | 0.0253 nM | 0.0253 nM | 0.0253 nM |  | 0.003 nM | 0.0123 nM | 0.841 nM |  | 0.001 nM | 0.006 nM |  |  |  |  |  |  |  | 
CD79b/5C7 (2+2 B) Fc-silenced (bispecific antibody, human IgG1, kappa, L234A L235A) heavy: not shown light: ELVMTQSPATLSVSPGERATLSCRASEDIENYLAWYQQKPGQPPRLLIYRASTLSSGVPARFSGSGSGTEFTLTISSLQSEDFAVYYCQQGYRNSNVDNPFGGGTKVEIKRTVAAPSVFIFPPSDEQLKSGTASVVCLLNNFYPREAKVQWKVDNALQSGNSQESVTEQDSKDSTYSLSSTLTLSKADYEKHKVYACEVTHQGLSSPVTKSFNRGEC | 0.0062 nM | 0.00617 nM | 0.00617 nM | 0.002 nM |  | 0.043 nM | 0.0643 nM | 0.001 nM | 0.0009 nM | 0.0014 nM | 0.0231 nM | 0.0008 nM | 0.002 nM | 0.131 nM | 0.0004 nM | 0.002 nM | 0.0007 nM | IC50 (nM), Ramos cell killing by M0 macrophages, Donor 159 [3]: 0.001 nM; IC50 (nM), Ramos cell killing by M0 macrophages, Donor 161 [3]: 0.0008 nM
CD79b/5C7 (1+1 B) Fc-silenced (bispecific antibody, human IgG1, kappa, L234A L235A) heavy 1: EQQLVETGGGLIQPGGSLRLSCAASGFTINIDYWISWVRQAPGKGLEWIGIIDPGDGTTYFAIWVSGRFTISFDNSKNTVYLQMNSLRAEDTAVYFCVREFSASAYQYDLWGPGTLVTVSSASTKGPSVFPLAPSSKSTSGGTAALGCLVKDYFPEPVTVSWNSGALTSGVHTFPAVLQSSGLYSLSSVVTVPSSSLGTQTYICNVNHKPSNTKVDKKVEPKSCDKTHTCPPCPAPEAAGGPSVFLFPPKPKDTLMISRTPEVTCVVVDVSHEDPEVKFNWYVDGVEVHNAKTKPREEQYNSTYRVVSVLTVLHQDWLNGKEYKCKVSNKALGAPIEKTISKAKGQPREPQVCTLPPSRDELTKNQVSLSCAVKGFYPSDIAVEWESNGQPENNYKTTPPVLDSDGSFFLVSKLTVDKSRWQQGNVFSCSVMHEALHNRFTQKSLSLSPGK heavy 2: not shown light: ELVMTQSPATLSVSPGERATLSCRASEDIENYLAWYQQKPGQPPRLLIYRASTLSSGVPARFSGSGSGTEFTLTISSLQSEDFAVYYCQQGYRNSNVDNPFGGGTKVEIKRTVAAPSVFIFPPSDEQLKSGTASVVCLLNNFYPREAKVQWKVDNALQSGNSQESVTEQDSKDSTYSLSSTLTLSKADYEKHKVYACEVTHQGLSSPVTKSFNRGEC | 0.0329 nM | 0.0329 nM | 0.0329 nM |  | 0.004 nM | 0.0452 nM | 0.29 nM |  | 0.003 nM | 0.005 nM | 0.0833 nM | 0.006 nM | 0.003 nM | 0.334 nM | 0.002 nM | 0.005 nM | 0.001 nM | 
